Measurements reported in the DeepSol protein solubility set.

Assay: soluble on expression in E. coli; label from the status in PepcDB or PDB records

Sequence	soluble on expression in E. coli
MAHHHHHHMRSTSALYRYACDEEGCVSHSELVKLFHGIDVALGTDADATAKADDMTPAPPPPALADKMLLAYAPNLCFPTHLTLSQSYLGDAGLAAFMRMLPVLRWVRAIEARGVGAGPRTIEALSGALTAYLVEGCEEAAALPTVATMGDSVSGAEQLAGGRLPALELVDLRDNDGIYALSGQRLLTALRKRRLMLRAWCAAHAGVGDVVPALEVLVDLDALPPSTANALHEWNEGAANLKYQRMLARETHRWQEQVQVFTVRSAVSEAMKCSDSDMPGTAVAGAAAGQPVGEHVIFRLPSSADGDSQMTQMTCEVNACMSDFLTASCCLSSAKEAAPQPAHVVSGSSSLACPLPTLDGVRAALQVCIDFGADTLAILPHTNATLWYVASVWQQQQKEQHATTPSSSADTAEYVQLNYWEAKANVAALLRGLQANPALETELETSSQAGGVVIQRHLYRLRELYVQLDQNDAPHEDAICTARVAGVGATPLSEMVALYYRIVAALVTRRFSETHLPSMRACEQHISDVTEHVLNHLVVGEVSSEALEARIERLRSSTDAGSVPSGRPSGASDFSQSTRALPPVMAQCLYHLRRHQAEAEAWVKTYAGTAVAAPQPSSSSAAAAPIHAFHACHCADGLRRHMDECVAPTSSNEGLSSNLLPLPCTSCCYHALQAAQTLLQSPGEGSSGECELCARWAILEPVRRALPRELRMFFLDMVIRHRSRVRGGCAYVPSLDSVTGVGAPLPLSMVDWLAYTEHQSENWAKVLRVFGEWYRLRALESYGIAEARTLLRQPPT	not soluble
MRKISVFDTTLRDGEQSAGVNLNFEEKMEIAKQLERLGVDIIEAGFPASSQGDFQSVKAIAETVKGSSVTGLARSVQKDIDAAWEALKSAEEPRIHLFIATSPIHMEHKLRMTPEQVIEKAVESVKYAASRFKHVQWSAEDASRSDFPFLAQIIEAVIQAGATVINLPDTVGYTTPQEIKRMFQYMKQNVPSIDKVSLSTHNHDDLGMAVANSLAAIQGGADQVECTINGIGERAGNASLEEIAVALNIRKDHYETETGLILKEIKRTSSLVSKLTGMVVPNNKAVVGANAFAHESGIHQDGVLKNKQTYEIITPEMVGVSSNSMVLGKHSGRHAFKTKVQELGFTGTDEQLNNIFKAFKDLADKKKEITEDDLFALMTEQTVGGETNHYELQTLQVNYGSNLTNTATITMKLPSGEVAEEAATGSGSVEAIYNTLERLLDAPVKLLDYRIQSITGGRDALADVYVQMDYQGVVSSGRGTAHDVLEASAKAYLNAVNRTINRKKYAEVYGSKVEV	soluble
MNVHQRYAMGDSLAAKHGLWSEEQIDAAARVRRIAEEQGLETIRFSFPDQHGILRGKTLVASEALNCLDNGATITTTMLAKDTSHKTVFPVFQAGGGFGMSEMQGGADVVMLPDPTTFRVLPWAPTTGWVLCDLYFADGRPVQFATRNIYRAALQKLAARGYDYKAGLEVEFHVFKVVDSKMRPEHAGQPGEPPEVSLLSHGYQYLTEQRYDQMEPVLELIRRDVVALGLPLRSIEVEFGPSQCEFTFQPTVGLLPADLMVLFRAAVKQICRRHGYHATFMCRPRIPNVVSSGWHLHQSVVARDGGRNAFMSDSDVLSDFGRHYLAGLMTHARAATVFTTPTINGYKRYRSYSLAPDRAIWGRDNRGVMLRVLGGAGDKATRIENRVGEPAANPYLYMASQILSGLDGVDRALDPGPSADTPYETKADLLPKSLREAIFALRDDPFFRTALGDEFVDYYTFIKNAEIERFQAEVTEWEQREYFEMF	soluble
MAARKVRIQTTINSNVYEHYIKKLLPEYGQLNKLIEEAVKQLFEIRENELSKLDRLRAKMMREAGVIAIGFESAEKALKGEIEKVLSENEINFLLEWYYGRPIEKIAFEEAIEFMRTALIAMNWAVDAKVNLEGEETHIMVRSNLGRGLAELLCMVIKHFFERNYGVEVRFSVYPGGYTLSFRHVSTDAYPCSSVRE	not soluble
MGSDKIHHHHHHMNNIIATILKYAGLEGKAVIPLKGATSSYVFRAGDSVFRIHTNPAWLEQEPDLVAHEVFALRATGRLGPDVENYQLTWEGEIPPWIQMTCLPGEVRLEPLNRAYLKQLAKTLVAIHQLPVPEARYQYAPYVTKRTVPFWAVQKEMWQRAVAEPPATSQQVRFIHRDFHPVNVLYESAEKYNVVDWINGCVGPIEADVAHCRLNLMLLESVEAADQFLAEYIAYSGFSYDRKWDLTAVFDFEPDTLNVYPGWKAYGKANISQGNVRERMENIVLKVYENDESGY	not soluble
MLRHNVPIRRDLDKIACDHGFDFHVIDNEIYWDESRAYRFTLRQIEEQIEKPTAELHQMCLEIVERAVRDEQSMQQLAIPPLYWDVIAESWRSRDPSLYGRMDFVWCGKDPVKLLEYNADTPTSLYESSYFQWLWLEDARRSGAIPRDADQYNAIQERLIARFSELYSREPLYFCCCEDTDEDRTTVLYLQDCAQQAGQETRFIYIEELGLGVGGVLTDLDDNVIRRAFKLYPLEWMMRDDNGPLLRKRREQWIEPLWKSILSNKGLLPLLWRFFPGHPNLLPAWFEGEKSLAAPGESSVRKPIYSREGGNVTIFDERQNVIDHADGDYADEPMIYQAFQPLPRFGDSYTLIGSWIIDDEASGMGIREDNTLITKDTSRFVPHYIAG	not soluble
MIIIMAGGKSSRMGREKPVLKIAGKEMLLWVYEQAEAVGEVLVALSRHTPRTRELCLREGIEFVDTPGRGYVKDVQWLLREFGPFISLSSDIPFVKSSDIYSLLKEFDGKVSLTGVLPLEVVPKDLTPYSYMGYAIVGINGVAKEGEKFFVFSNPLLALNVNTPRELELAKRVAEIIRVRGIR	soluble
MSLAQGDTEVPTLYLWKTGPWGRCMGDDCGPGGIQTRAVWCAHVEGWTTLHTNCKQAVRPSNQQNCFKVCDWHKELYDWRLGTWDRCQPVISKSLEKSRECVKGEEGIQVREIMCIQKDKDIPAEDIICEYFEPKPLLEQACLIPCQKDCMVSEFSPWSECSRTCGSGLQHRTRHVVAPPQYGGSGCPNLTEFQVCQSNPCEEDESLYSLQVGPWSACSVPHTRQARQARRRGKNKEREKERGKAVKDPEARELIKKKRNRNRQNRQENRYWDIQIGYQTRDVTCLNRTGKSADLSFCQQERLPMTFQSCVITKECQVSEWLEWSPCSKTCHDVTSPTGTRVRTRTITQFPIGSEKECPALEEKEPCVSQGDGAVLCATYGWRTTEWTECHVDPLLSQQDKRRANQTALCGGGVQTREIYCIQTNDNMLSHGNTEGHHHHHH	not soluble
MQLFHKTVNRRGTHSIKWDTYKNEELIHAWIADMDFEVPQPIQTALKKRIEHPIFGYTLPPENIGDIICNWTKKQYNWDIQKEWIVFSAGIVPALSTSIQAFTKENESVLVQPPIYPPFFEMVTTNNRQLCVSPLQKQNDTYAIDFEHLEKQFQQGVKLMLLCSPHNPIGRVWKKEELTKLGSLCTKYNVIVVADEIHSDIIYADHTHTPFASLSEELAARTITCMAPSKTFNIAGLQASIIIIPNEKLRQAFTSIQYRQGFHGLNIFAYTAMQSAYTECNDWLNEIRFYIEDNAKFACEYIKDHIPTLSVMKPEGSFLLWIDCSALNLSQDERTKLLEEKGKIIVEPGEKYGLGGEEHIGINIGCPRSVLEEILNRLRHTFS	soluble
SADSEADKPLRKISAAFKKLAIIVNSPNPEVPVTQFSHACSLVSPLFGCLGIAFKFAEMDYVAKVDDLVRASSSISTLVVMMDKDIEADCVRKAGSHTRNLLRVKRGLDMVKVLFEQIIASEGDNSLKDPATKSYAQVFAPHHGWAIRKAVSLGMYALPTRAHLLNMLKEDEAAAKIHMQSYVNSSAPLITYLDNLFLSKQLGIDW	soluble
MKVGINGFGRIGRQVFRILHSRGVEVALINDLTDNKTLAHLLKYDSIYHRFPGEVAYDDQYLYVDGKAIRATAVKDPKEIPWAEAGVGVVIESTGVFTDADKAKAHLEGGAKKVIITAPAKGEDITIVMGVNHEAYDPSRHHIISNASCTTNSLAPVMKVLEEAFGVEKALMTTVHSYTNDQRLLDLPHKDLRRARAAAINIIPTTTGAAKATALVLPSLKGRFDGMALRVPTATGSISDITALLKREVTAEEVNAALKAAAEGPLKGILAYTEDEIVLQDIVMDPHSSIVDAKLTKALGNMVKVFAWYDNEWGYANRVADLVELVLRKGV	soluble
KLDKAYLNNDADKITYMPTWRPWEESEIINGNIKKTTYYKSILDVIKAFEKENMLNRLQIAAHNKFSQYMKNNFDKYQNIFIEDPTDTLTNSIIYITDISSIILDAAYRGAYPIFYWKEFDYIIEKHGGTSPVNPENAPGDVVYSEQDLVNIVKYIIRNDYKIPSRIKENYKKLNEFNDNQNTQRVVDILIEDNII	not soluble
